Data on two proteins can be found in PMC5430844, “RRM domain of ALS/FTD-causing FUS characteristic of irreversible unfolding spontaneously self-assembles into amyloid fibrils” (Scientific Reports, 2017).

Series [1] concerns the molecule itself. Description: time-lapsed intrinsic UV and visible fluorescence, ThT-binding fluorescence, far-UV CD and negative-stain EM of an incubated sample; RRM alone, 40 µM in 1 mM phosphate buffer pH 6.8, incubated at 25 °C up to 12 days; EM at 3, 6 and 10 days; monomer to amyloid fibrils.
Series [2] concerns the molecule itself. The series is described as follows: 1D 1H NMR line broadening and intensity loss; N-terminal LC domain alone, 40 µM, 25 °C, 1 mM phosphate buffer, pH 6.8 compared with pH 5.0; non-exchangeable protons over −0.4–1.8 ppm.

B1: FUS RRM domain (282–371) (domain or fragment, human, UniProt P35637 282-371, looked up)
chain: SDNNTIFVQGLGENVTIESVADYFKQIGIIKTNKKTGQPMINLYTDRETGKLKGEATVSFDDPPSAKAAIDWFDGKEFSGNPIKVSFATR
notes: Fused in Sarcoma/Translocated in Sarcoma (FUS), 526 residues, RNA-recognition motif, residues 282-371 (N-terminal residue Ser282); Cloned by PCR from FUS cDNA into a modified pET28a; The introduction gives the RRM as 285–371, but the construct used is 282–371; also called FUS (282–371); RNA-recognition motif
Take B1: the binding result in series [1] is “binds”.

B2: FUS N-terminal low-sequence complexity (LC) domain (1–267) (domain or fragment, human, UniProt P35637 1-267, looked up)
chain: MASNDYTQQATQSYGAYPTQPGQGYSQQSSQPYGQQSYSGYSQSTDTSGYGQSSYSSYGQSQNTGYGTQSTPQGYGSTGGYGSSQSSQSSYGQQSSYPGYGQQPAPSSTSGSYGSSSQSSSYGQPQSGSYSQQPSYGGQQQSYGQQQSYNPPQGYGQQNQYNSSSGGGGGGGGGGNYGQDQSSMSSGGGSGGGYGNQDQSGGGGSGGYGQQDRGGRGRGGSGGGGGGGGGGYNRSSGGYEPRGRGGGRGGRGGMGGSDRGGFNKFGG
notes: Fused in Sarcoma/Translocated in Sarcoma (FUS), 526 residues, N-terminal LC domain, residues 1-267 (QGSY-rich prion-like region 1–165 and G-rich region 166–267); Cloned by PCR from FUS cDNA into a modified pET28a; also called N-terminal LC domain; FUS (1–267)
B2: the binding result in series [2] is recorded as “binds”.
